Measurements: article PMC4368477

Molecular target: HA head of H1N1 A/Solomon Islands/3/2006 (Influenza A virus, A/Solomon Islands/3/2006 (H1N1))
Experiment: BLI

CH65 Fab gave a koff of 0.013 s⁻¹ and a kon of 42900 M⁻¹ s⁻¹.
